Laboratory results as given in publication PMC4931921.

T1: IFIT3 (Homo sapiens, UniProt O14879 1-490)
T1 sequence: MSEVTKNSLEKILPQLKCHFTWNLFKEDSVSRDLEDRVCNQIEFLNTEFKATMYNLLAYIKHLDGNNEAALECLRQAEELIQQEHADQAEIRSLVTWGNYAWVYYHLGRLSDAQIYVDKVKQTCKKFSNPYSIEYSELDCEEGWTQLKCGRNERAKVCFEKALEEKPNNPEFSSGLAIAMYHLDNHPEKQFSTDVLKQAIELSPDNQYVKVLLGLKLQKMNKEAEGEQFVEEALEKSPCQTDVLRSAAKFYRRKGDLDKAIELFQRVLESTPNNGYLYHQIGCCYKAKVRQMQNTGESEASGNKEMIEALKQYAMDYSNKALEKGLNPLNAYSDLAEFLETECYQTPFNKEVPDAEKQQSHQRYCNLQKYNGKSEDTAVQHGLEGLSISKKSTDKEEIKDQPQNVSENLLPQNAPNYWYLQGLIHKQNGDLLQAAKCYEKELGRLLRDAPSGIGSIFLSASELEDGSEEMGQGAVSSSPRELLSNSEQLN

T2: IFIT5 (Homo sapiens, UniProt Q13325 1-482)
T2 sequence: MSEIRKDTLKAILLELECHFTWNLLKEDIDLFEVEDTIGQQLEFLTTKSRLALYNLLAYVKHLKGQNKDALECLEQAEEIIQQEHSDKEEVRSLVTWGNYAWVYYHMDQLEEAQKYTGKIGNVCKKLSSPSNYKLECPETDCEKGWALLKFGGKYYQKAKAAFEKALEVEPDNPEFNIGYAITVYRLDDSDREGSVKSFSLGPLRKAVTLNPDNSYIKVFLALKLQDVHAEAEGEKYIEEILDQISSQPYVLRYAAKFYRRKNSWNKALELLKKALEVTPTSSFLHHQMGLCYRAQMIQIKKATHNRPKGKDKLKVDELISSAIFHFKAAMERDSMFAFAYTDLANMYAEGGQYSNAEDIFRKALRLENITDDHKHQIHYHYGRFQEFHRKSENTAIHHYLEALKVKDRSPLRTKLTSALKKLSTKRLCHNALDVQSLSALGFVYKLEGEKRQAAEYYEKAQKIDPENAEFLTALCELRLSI

T3: IFIT1 (Homo sapiens, UniProt P09914 1-478)
T3 sequence: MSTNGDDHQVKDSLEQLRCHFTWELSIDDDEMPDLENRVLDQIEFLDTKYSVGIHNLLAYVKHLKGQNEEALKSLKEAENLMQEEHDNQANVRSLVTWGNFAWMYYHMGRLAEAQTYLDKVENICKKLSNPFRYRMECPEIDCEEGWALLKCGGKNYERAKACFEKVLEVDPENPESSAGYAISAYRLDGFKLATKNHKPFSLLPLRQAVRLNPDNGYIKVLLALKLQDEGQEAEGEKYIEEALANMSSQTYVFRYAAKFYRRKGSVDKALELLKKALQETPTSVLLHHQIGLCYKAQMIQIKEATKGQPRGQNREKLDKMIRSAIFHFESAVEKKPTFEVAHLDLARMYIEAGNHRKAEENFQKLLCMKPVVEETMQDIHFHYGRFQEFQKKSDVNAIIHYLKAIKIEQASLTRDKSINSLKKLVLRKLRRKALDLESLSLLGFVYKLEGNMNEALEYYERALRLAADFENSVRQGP

B1: PPP-3nt (dsRNA)
RNA 1: GGGAGAGAGAGAGAGAGAGUAAGGGCGUCGUCGCCCCGAGAAUU
RNA 2: ACUCUCUCUCUCUCUCU
modifications: 5'-triphosphate on strand 1
B2: PPP-ss (44nt PPP-ssRNA) (ssRNA)
RNA: B1 RNA 1
modifications: 5'-triphosphate
B3: PPP-5nt (dsRNA)
RNA 1: B1 RNA 1
RNA 2: ACUCUCUCUCUCUCU
modifications: 5'-triphosphate on strand 1
B4: PPP-oligo-C (ssRNA)
RNA: CCCC
modifications: 5'-triphosphate
B5: PPP-oligo-U (ssRNA)
RNA: UUU
modifications: 5'-triphosphate
B6: PPP-oligo-A (ssRNA)
RNA: AAAA
modifications: 5'-triphosphate

Key:
IFIT3 = molecular target: T1, IFIT3; assay: EMSA
IFIT5 [1] = molecular target: T2, IFIT5; assay: EMSA
IFIT1 = molecular target: T3, IFIT1; assay: EMSA
IFIT5 [2] = molecular target: T2, IFIT5; assay: crystal structure 1.86 A
IFIT5 [3] = molecular target: T2, IFIT5; assay: crystal structure 2.0 A
IFIT5 [4] = molecular target: T2, IFIT5; assay: crystal structure 2.5 A

Row | Binder | binding result (IFIT3) | binding result (IFIT5 [1]) | binding result (IFIT1) | other results
1 | B1 | no binding | binds | – | –
2 | B2 | no binding | binds | binds | –
3 | B3 | – | – | binds | –
4 | B4 | – | – | – | binding result (IFIT5 [2]): binds
5 | B5 | – | – | – | binding result (IFIT5 [3]): binds
6 | B6 | – | – | – | binding result (IFIT5 [4]): binds
